The target in the assay is RSV prefusion F (PR-DM) (respiratory syncytial virus A) (UniProt P03420). Kind of assay: cryo-EM structure.

As for “RSV prefusion F (PR-DM) (from UniProt P03420) (complex)”, the stoichiometry N (usually a count of units in the complex or per binding partner) stood at 3.

Source of the values: article PMC11870394.
